The target of experiment [1] is T1, human chemokine receptor CXCR4 fused to the N-terminus of GFP or TagRFP (human), P61073.
T1 chain: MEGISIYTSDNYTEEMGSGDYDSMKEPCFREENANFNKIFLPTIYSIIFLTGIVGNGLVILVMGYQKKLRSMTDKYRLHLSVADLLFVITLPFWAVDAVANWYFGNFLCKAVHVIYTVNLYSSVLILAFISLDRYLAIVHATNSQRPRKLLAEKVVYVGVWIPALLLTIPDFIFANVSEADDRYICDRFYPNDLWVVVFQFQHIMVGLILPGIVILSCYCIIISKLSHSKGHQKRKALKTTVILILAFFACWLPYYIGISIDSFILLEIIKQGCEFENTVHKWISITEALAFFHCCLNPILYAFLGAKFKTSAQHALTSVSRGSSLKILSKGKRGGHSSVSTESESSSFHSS
Kind of experiment: FRET or BRET. To be noted: remark: other sources report otherwise.

Experiment [2] addresses T1, human chemokine receptor CXCR4 fused to …. Kind of experiment: FRET or BRET. To be noted: remark: other sources report otherwise. (In general: In BRET a luciferase serves as donor, and the signal depends on an acceptor being close.)

B1: human chemokine receptor CXCR4 fused to the N-terminus of GFP or TagRFP, P61073 1-352 (receptor)
chain: MEGISIYTSDNYTEEMGSGDYDSMKEPCFREENANFNKIFLPTIYSIIFLTGIVGNGLVILVMGYQKKLRSMTDKYRLHLSVADLLFVITLPFWAVDAVANWYFGNFLCKAVHVIYTVNLYSSVLILAFISLDRYLAIVHATNSQRPRKLLAEKVVYVGVWIPALLLTIPDFIFANVSEADDRYICDRFYPNDLWVVVFQFQHIMVGLILPGIVILSCYCIIISKLSHSKGHQKRKALKTTVILILAFFACWLPYYIGISIDSFILLEIIKQGCEFENTVHKWISITEALAFFHCCLNPILYAFLGAKFKTSAQHALTSVSRGSSLKILSKGKRGGHSSVSTESESSSFHSS
Take B1: the FRET efficiency in experiment [1] is 10.4%; in experiment [2], 10.9%.

Source of the values: article PMC3408954.
